Assay results as given in patent publication US20260193293A1, “PEPTIDES CAPABLE OF INHIBITING PROTEIN-PROTEIN INTERACTIONS AT GABAB1A SUBUNIT AND USES THEREOF” (UNIVERSITY OF COPENHAGEN, priority 2022, published 2026).
Non-standard residues stand in square brackets, D forms with d. NMeW = CN[C@@H](Cc1c[nH]c2ccccc12)C(=O)O; NMeI = CC[C@H](C)[C@H](NC)C(=O)O; NMeT = CN[C@H](C(=O)O)[C@@H](C)O; NMeE = CN[C@@H](CCC(=O)O)C(=O)O; NMeD = CN[C@@H](CC(=O)O)C(=O)O; Sar = CNCC(=O)O

Target: Sushi domains (SD1/2) protein of the GABAB1a (GB1a) subunit, recombinant
Experiment: FP competition

Sequence of Sushi domains (SD1/2) protein of the GABAB1a (GB1a) subunit, recombinant (Q9Z0U4 29-158): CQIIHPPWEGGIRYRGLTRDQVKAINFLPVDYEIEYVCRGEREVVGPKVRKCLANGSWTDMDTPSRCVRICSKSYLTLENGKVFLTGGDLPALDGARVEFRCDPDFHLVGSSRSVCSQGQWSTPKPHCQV

Binder | Ki [nM]
Ac-ETEF[NMeI]AWGPTGDED-NH2 (SMILES CC[C@H](C)[C@@H](C(=O)N[C@@H](C)C(=O)N[C@@H](Cc1c[nH]c2ccccc12)C(=O)NCC(=O)N1CCC[C@H]1C(=O)N[C@H](C(=O)NCC(=O)N[C@@H](CC(=O)O)C(=O)N[C@@H](CCC(=O)O)C(=O)N[C@@H](CC(=O)O)C(N)=O)[C@@H](C)O)N(C)C(=O)[C@H](Cc1ccccc1)NC(=O)[C@H](CCC(=O)O)NC(=O)[C@@H](NC(=O)[C@H](CCC(=O)O)NC(C)=O)[C@@H](C)O) [ETEF(N-Me-I)…] | 33
Ac-ETEFIA[NMeW]GPTGDED-NH2 (SMILES CC[C@H](C)[C@H](NC(=O)[C@H](Cc1ccccc1)NC(=O)[C@H](CCC(=O)O)NC(=O)[C@@H](NC(=O)[C@H](CCC(=O)O)NC(C)=O)[C@@H](C)O)C(=O)N[C@@H](C)C(=O)N(C)[C@@H](Cc1c[nH]c2ccccc12)C(=O)NCC(=O)N1CCC[C@H]1C(=O)N[C@H](C(=O)NCC(=O)N[C@@H](CC(=O)O)C(=O)N[C@@H](CCC(=O)O)C(=O)N[C@@H](CC(=O)O)C(N)=O)[C@@H](C)O) [ETEFIA(N-Me-W)GPTGDED] | 46
Ac-ETEFIAWG[Sar]TGDED-NH2 (SMILES CC[C@H](C)[C@H](NC(=O)[C@H](Cc1ccccc1)NC(=O)[C@H](CCC(=O)O)NC(=O)[C@@H](NC(=O)[C@H](CCC(=O)O)NC(C)=O)[C@@H](C)O)C(=O)N[C@@H](C)C(=O)N[C@@H](Cc1c[nH]c2ccccc12)C(=O)NCC(=O)N(C)CC(=O)N[C@H](C(=O)NCC(=O)N[C@@H](CC(=O)O)C(=O)N[C@@H](CCC(=O)O)C(=O)N[C@@H](CC(=O)O)C(N)=O)[C@@H](C)O) [peptide 38 (Ac-ETEFIAWG(N-Me-G)TGDED-NH2)] | 32
Ac-ETEFIAWGP[NMeT]GDED-NH2 (SMILES CC[C@H](C)[C@H](NC(=O)[C@H](Cc1ccccc1)NC(=O)[C@H](CCC(=O)O)NC(=O)[C@@H](NC(=O)[C@H](CCC(=O)O)NC(C)=O)[C@@H](C)O)C(=O)N[C@@H](C)C(=O)N[C@@H](Cc1c[nH]c2ccccc12)C(=O)NCC(=O)N1CCC[C@H]1C(=O)N(C)[C@H](C(=O)NCC(=O)N[C@@H](CC(=O)O)C(=O)N[C@@H](CCC(=O)O)C(=O)N[C@@H](CC(=O)O)C(N)=O)[C@@H](C)O) […(N-Me-T)GDED] | 77
Ac-ETEFIAWGPT[Sar]DED-NH2 (SMILES CC[C@H](C)[C@H](NC(=O)[C@H](Cc1ccccc1)NC(=O)[C@H](CCC(=O)O)NC(=O)[C@@H](NC(=O)[C@H](CCC(=O)O)NC(C)=O)[C@@H](C)O)C(=O)N[C@@H](C)C(=O)N[C@@H](Cc1c[nH]c2ccccc12)C(=O)NCC(=O)N1CCC[C@H]1C(=O)N[C@H](C(=O)N(C)CC(=O)N[C@@H](CC(=O)O)C(=O)N[C@@H](CCC(=O)O)C(=O)N[C@@H](CC(=O)O)C(N)=O)[C@@H](C)O) […(N-Me-G)DED] | 132
Ac-ETEFIAWGPTG[NMeD]ED-NH2 (SMILES CC[C@H](C)[C@H](NC(=O)[C@H](Cc1ccccc1)NC(=O)[C@H](CCC(=O)O)NC(=O)[C@@H](NC(=O)[C@H](CCC(=O)O)NC(C)=O)[C@@H](C)O)C(=O)N[C@@H](C)C(=O)N[C@@H](Cc1c[nH]c2ccccc12)C(=O)NCC(=O)N1CCC[C@H]1C(=O)N[C@H](C(=O)NCC(=O)N(C)[C@@H](CC(=O)O)C(=O)N[C@@H](CCC(=O)O)C(=O)N[C@@H](CC(=O)O)C(N)=O)[C@@H](C)O) […(N-Me-D)ED] | 45
Ac-ETEFIAWGPTGD[NMeE]D-NH2 (SMILES CC[C@H](C)[C@H](NC(=O)[C@H](Cc1ccccc1)NC(=O)[C@H](CCC(=O)O)NC(=O)[C@@H](NC(=O)[C@H](CCC(=O)O)NC(C)=O)[C@@H](C)O)C(=O)N[C@@H](C)C(=O)N[C@@H](Cc1c[nH]c2ccccc12)C(=O)NCC(=O)N1CCC[C@H]1C(=O)N[C@H](C(=O)NCC(=O)N[C@@H](CC(=O)O)C(=O)N(C)[C@@H](CCC(=O)O)C(=O)N[C@@H](CC(=O)O)C(N)=O)[C@@H](C)O) […(N-Me-E)D] | 31
